{"source": "paper PMC5708134", "proteins": {"B1": {"name": "recombinant human DCXR (Homo sapiens) (protein)", "chain": "MELFLAGRRVLVTGAGKGIGRGTVQALHATGARVVAVSRTQADLDSLVRECPGIEPVCVDLGDWEATERALGSVGPVDLLVNNAAVALLQPFLEVTKEAFDRSFEVNLRAVIQVSQIVARGLIARGVPGAIVNVSSQCSQRAVTNHSVYCSTKGALDMLTKVMALELGPHKIRVNAVNPTVVMTSMGQATWSDPHKAKTMLNRIPLGKFAEVEHVVNAILFLLSDRSGMTTGSTLPVEGGFWAC"}}, "substrate": "CC1=CC(=O)c2ccccc2C1=O", "assay": "Chemical redox cycling by DCXR", "format": "biochemical, human", "conditions": "other: redox cycling; quinone varied; 200 μM NADPH fixed; pH 7.0"}
{"protein": "B1", "values": [{"measurement": "Km", "result": 365.80, "unit": "µM"}, {"measurement": "kcat", "result": 0.022, "unit": "s⁻¹"}, {"measurement": "kcat/Km", "result": 66.7, "unit": "M⁻¹ s⁻¹"}]}
